One block for each molecule: values may come before it.
Columns and labels:
[1] = biological target: L1 FN3 putative C-C′ loop peptide …^852, wild type (human); test: SDS-PAGE of peptides
SEC = biological target: the molecule itself; test: SEC
[2] = biological target: the molecule itself; test: SDS-PAGE without boiling, immunoblot

stoichiometry N [1]: 3
Molecule: L1 FN3 putative C-C′ loop peptide …^852, wild type

B1: L1 third FN-like repeat (FN3), GST fusion protein, wild type (domain or fragment, human, UniProt P32004 814-916, looked up)
chain: AIPELEGIEILNSSAVLVKWRPVDLAQVKGHLRGYNVTYWREGSQRKHSKRHIHKDHVVVPANTTSVILSGLRPYSSYHLEVQAFNGRGSGPASEFTFSTPEG
stoichiometry N (SEC): ≥ 3

B2: L1 FN-like repeats 1-3 (FN1-3) fusion protein, as run on SDS-PAGE (domain or fragment, human, UniProt P32004 615-916, looked up)
chain: VPRLVLSDLHLLTQSQVRVSWSPAEDHNAPIEKYDIEFEDKEMAPEKWYSLGKVPGNQTSTTLKLSPYVHYTFRVTAINKYGPGEPSPVSETVVTPEAAPEKNPVDVKGEGNETTNMVITWKPLRWMDWNAPQVQYRVQWRPQGTRGPWQEQIVSDPFLVVSNTSTFVPYEIKVQAVNSQGKGPEPQVTIGYSGEDYPQAIPELEGIEILNSSAVLVKWRPVDLAQVKGHLRGYNVTYWREGSQRKHSKRHIHKDHVVVPANTTSVILSGLRPYSSYHLEVQAFNGRGSGPASEFTFSTPEG
stoichiometry N [2]: 3

Reference: PMC2175144 (The Journal of Cell Biology, 2000)
